Assay results published in US20130274191A1 (THOMAS JEFFERSON UNIVERSITY, published 2013).
Non-standard residues stand in square brackets, D forms with d. No end group written: not given here. Sar = CNCC(=O)O

Molecular target: T1, human Angiotensin II type 1 receptor (AT1R) (human, UniProt P30556 1-359, limits assumed)
T1 sequence (looked up): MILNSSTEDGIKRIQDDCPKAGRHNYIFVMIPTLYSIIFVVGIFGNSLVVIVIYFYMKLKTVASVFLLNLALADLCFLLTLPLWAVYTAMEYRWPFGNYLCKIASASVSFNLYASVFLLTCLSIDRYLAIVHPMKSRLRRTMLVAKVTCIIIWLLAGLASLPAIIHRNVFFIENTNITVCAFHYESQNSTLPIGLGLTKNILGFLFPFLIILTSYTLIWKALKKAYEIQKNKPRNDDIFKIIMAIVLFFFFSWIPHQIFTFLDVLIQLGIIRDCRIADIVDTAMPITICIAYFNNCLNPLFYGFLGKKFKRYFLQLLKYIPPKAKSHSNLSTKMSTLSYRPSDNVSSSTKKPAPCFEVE
Assay: cell-based or functional assay

βarr activation by the AT1R, potency relative to AngII: 10 times less potent than AngII
Binder: [Sar]RVY[Cys(Et)]HPL [CORET: Sar^1,Cys(Et)^5,Leu^8-AngII]
